The values that follow come from article PMC11921806, “Structural characterization and inhibition of the interaction between ch-TOG and TACC3” (The Journal of Cell Biology, 2025).

The target of data set [1] is T1, TACC3 629–838 (human, UniProt Q9Y6A5 629-838).
T1 construct: human TACC3, TACC domain, residues 629-838; For MST the protein was fluorescently labelled via NHS coupling (NHS Red labelling kit, Nanotemper); Construct from Hood et al., 2013; also called TACC3 TACC domain; TACC3 TD; not shown: His, N-terminal, cleaved; NusA, N-terminal, cleaved
Kind of data set: MST; NHS Red labelled TACC domain at 600 nM, H5 peptide 0–400 μM; 20 mM sodium phosphate, 50 mM NaCl, 2 mM DTT, 0.05% Tween, 0.02% NaN3; one-site specific binding model. Particulars: both partners purified.

Data set [2] deals with the molecule itself. In words: EPR (CW EPR and DEER); MTSL-labelled TACC3 proteins, 50 μM with 30% glycerol; CW EPR at 120 K, four-pulse DEER at 50 K.
For data set [3], the target named is T2, ch-TOG 1517–1957 (human, UniProt Q14008 1517-1957).
T2 construct: Construct from Hood et al., 2013; also called C-terminal domain of ch-TOG; not shown: His, N-terminal, cleaved; NusA, N-terminal, cleaved
Kind of data set: pull-down; in vitro co-precipitation; C-terminal His-tagged Affimers immobilised on Nickel Sepharose, incubated with TACC3 629–838 ∆699–765, ch-TOG 1517–1957 added. The conditions noted are these: both partners purified.

Data set [4] concerns the target T1, TACC3 629–838. In words: pull-down; in vitro co-precipitation; His-NusA-ch-TOG 1817–1957 constructs immobilised on Nickel Sepharose, TACC3 629–838 added; binding of TACC3 resolved by western blot. Particulars: both partners purified. On the technique in general: A western blot detects proteins with antibodies after separation by electrophoresis.

B1: synthetic ch-TOG H5 peptide (residues 1929–1947) (peptide)
peptide: EVGPSVYLERLKILRQRCG
notes: human ch-TOG/CKAP5 helix H5, residues 1929-1947; source: synthetic peptide
By Kd is commonly meant the free concentration of one partner at which half of the binding sites on the other are occupied at equilibrium, for simple one-to-one binding. A higher Kd goes with lower affinity. B1 returned a Kd in data set [1] of 17.3 µM.

B2: TACC3 MTSL-C662 (domain or fragment)
chain: not shown
modifications: MTSL spin label on C662
notes: human TACC3 residues 629-838 with C749A and C828A; also called TACC3 629–838 C749A, C828A; source: E. coli BL21(DE3)RIL, purified, MTSL-labelled, SEC; not shown: His, N-terminal, cleaved; NusA, N-terminal, cleaved
For the molecule B2, the binding result in data set [2] is on record as “binds”.

B3: TACC3 629–838 ∆699–765 (domain or fragment)
chain: not shown
notes: human TACC3 residues 629-838 with residues 699-765 deleted; A version with a C-terminal biotinylated Avi-tag was used for Affimer panning and ELISA; also called TACC3 TD∆; not shown: His, N-terminal, cleaved; NusA, N-terminal, cleaved
Regarding B3, in data set [3], the binding result is “binds”.

B4: His-NusA-ch-TOG 1817–1957 (domain or fragment)
chain: ASRIDEKSSKAKVNDFLAEIFKKIGSKENTKEGLAELYEYKKKYSDADIEPFLKNSSQFFQSYVERGLRVIEMEREGKGRISTSTGISPQMEVTCVPTPTSTVSSIGNTNGEEVGPSVYLERLKILRQRCGLDNTKQDDRP
notes: not shown: His, N-terminal, kept; NusA, N-terminal, kept
As to B4, the binding result in data set [4] is given as “binds”.
